Reference: publication PMC4204775 (Human Molecular Genetics, 2014)

T1: AGT-Ma (S81L-Ma homodimer) (Homo sapiens, UniProt P21549, S81L)
T1 sequence (P21549 1-392 S81L): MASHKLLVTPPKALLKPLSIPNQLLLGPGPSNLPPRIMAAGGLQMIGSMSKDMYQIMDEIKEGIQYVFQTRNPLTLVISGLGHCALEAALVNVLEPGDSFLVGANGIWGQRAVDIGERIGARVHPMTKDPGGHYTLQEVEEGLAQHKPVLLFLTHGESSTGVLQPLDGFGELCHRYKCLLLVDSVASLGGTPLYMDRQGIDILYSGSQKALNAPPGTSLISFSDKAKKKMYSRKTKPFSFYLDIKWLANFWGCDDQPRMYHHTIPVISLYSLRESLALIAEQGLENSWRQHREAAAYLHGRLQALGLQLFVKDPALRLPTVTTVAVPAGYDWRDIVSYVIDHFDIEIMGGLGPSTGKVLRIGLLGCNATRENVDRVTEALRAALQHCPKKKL


What was measured:
[1] = target: T1, AGT-Ma (S81L-Ma homodimer); test: CD signal change at […] nm on PLP titration of apoenzyme; format: binding
[2] = substrate: C[C@H](N)C(=O)O; test: pyruvate formation, lactate dehydrogenase-coupled spectrophotometric assay; format: biochemical, Homo sapiens; details: saturating glyoxylate, 200 μM PLP, 100 mM potassium phosphate, 25°C
[3] = substrate: O=CC(=O)O; test: as above; format: biochemical, Homo sapiens; details: saturating L-alanine, 200 μM PLP, 100 mM potassium phosphate, 25°C

| Kd [1] | Molecule | kcat [2] | Km [3] | kcat [3] |
| --- | --- | --- | --- | --- |
| 17 ± 3 µM | Cc1ncc(COP(=O)(O)O)c(C=O)c1O [PLP] | – | – | – |
| – | AGT-Ma (S81L-Ma homodimer) (Homo sapiens; S81L) (protein) MASHKLLVTPPKALLKPLSIPNQLLLGPGPSNLPPRIMAAGGLQMIGSMSKDMYQIMDEIKEGIQYVFQTRNPLTLVISGLGHCALEAALVNVLEPGDSFLVGANGIWGQRAVDIGERIGARVHPMTKDPGGHYTLQEVEEGLAQHKPVLLFLTHGESSTGVLQPLDGFGELCHRYKCLLLVDSVASLGGTPLYMDRQGIDILYSGSQKALNAPPGTSLISFSDKAKKKMYSRKTKPFSFYLDIKWLANFWGCDDQPRMYHHTIPVISLYSLRESLALIAEQGLENSWRQHREAAAYLHGRLQALGLQLFVKDPALRLPTVTTVAVPAGYDWRDIVSYVIDHFDIEIMGGLGPSTGKVLRIGLLGCNATRENVDRVTEALRAALQHCPKKKL | 13.9 ± 0.9 s⁻¹ | 160 ± 20 µM | 13.9 ± 0.9 s⁻¹ |
